Legend:
Type in all cases: biochemical, Methanothermobacter marburgensis
[1] = substrate: CN(C)c1ccc(N=Nc2ccccc2C(=O)O)cc1; assay: reduction with electron donor, absorbance; details: electron acceptor, donor not stated (presumably NADH), varied substrate not stated, general method varies the donor, 50 mM Mops pH 7.4, 30°C
[2] = substrate: NC(=O)C1=CN([C@@H]2O[C@H](COP(=O)(O)OP(=O)(O)OC[C@H]3O[C@@H](n4cnc5c(N)ncnc54)[C@H](OP(=O)(O)O)[C@@H]3O)[C@@H](O)[C@H]2O)C=CC1; assay: purified protein; details: 1 mM coenzyme Q1 as acceptor, 50 mM Mops pH 7.4, 30°C
[3] = substrate: NC(=O)C1=CN([C@@H]2O[C@H](COP(=O)(O)OP(=O)(O)OC[C@H]3O[C@@H](n4cnc5c(N)ncnc54)[C@H](O)[C@@H]3O)[C@@H](O)[C@H]2O)C=CC1; assay: purified protein; details: 1 mM coenzyme Q1 as acceptor, 50 mM Mops pH 7.4, 30°C

B1: MmNQO (Methanothermobacter marburgensis str. Marburg) (protein)
chain: MHVYILFAHPSRKSFSREVLEAFTEGLSEAGHTYEVGDLYRMNFRSELSQEEYLREISQEAGSPLPEDVMEEHERIGRADALAFIYPLWWSDCPAKLKGWFDRVWTYGYAYFYEDGERGTRIDIEKAVVLCSAGHTEEDLEGTGIAESMRSVMLGDRLLGVGVKNVTMEILGGMVPGDDSCREINLMRARRAGRNL
notes: full length 196 residues, N-terminal MAS added, non-cleavable C-terminal His6 tag (EHHHHHH) kept; pET21, E. coli BL21(DE3); 23538 Da; homodimer with FMN
- Km [1]: 683 µM
- kcat [1]: 0.106 s⁻¹
- Km [2]: 111.6 µM
- kcat [2]: 0.243 s⁻¹
- kcat/Km [2]: 2170 M⁻¹ s⁻¹
- Km [3]: 96.8 µM
- kcat [3]: 0.26 s⁻¹
- kcat/Km [3]: 2680 M⁻¹ s⁻¹

Reference: publication PMC4274662, “A novel cytosolic NADH:quinone oxidoreductase from Methanothermobacter marburgensis” (Bioscience Reports, 2014)
